Results published in patent US20220242853A1, “MODIFIED CYANINE DYES AND CONJUGATES THEREOF” (BRACCO IMAGING S.P.A., priority 2019, published 2022).

Columns and labels:
U87MG cells = assay: Tumor uptake by optical imaging, subcutaneous human glioblastoma model; assay type: in vivo, Balb/c nu/nu mice; settings: iv 1 nmol, 1-2 hours after administration, tumor vs muscle
Description: Tumor uptake experiments were carried out in an animal model of human glioblastoma (subcutanous) overexpressing the integrin receptors, particularly αvβ3. Briefly, human glioblastoma U87MG cells (ATCC, HTB-14) were cultured in Eagle's Minimum Essential Medium (EMEM) supplemented with 10% Fetal Bovine Serum (FBS), 2 mM glutamine, 100 IU/mL penicillin, 100 μg/mL streptomycin. Male Balb/c nu/nu mice, 4-6 weeks of age (Charles River Laboratories), underwent subcutaneous implantation (right flank) of about 10 million cells suspended in 0.1 mL of EMEM. Mice were housed 4 per cage with food and water ad libitum. […] Then, AIN-76a rodent diet irradiated (Research Diets), a special diet that reduces auto-fluorescence, was used up to the end of the experiments. Tumor growth was monitored by longitudinal assessments using a caliper up to the target size of 300-600 mm^3 (3-4 weeks after cell implantation). […]
(§1) In vivo imaging was performed under gas anesthesia (Sevofluorane 6-8% in oxygen). […] Regions of interest (ROIs) were drawn on the tissues of interest for each fluorescence image at every time point to evaluate signal intensity (expressed as Average Radiant Efficiency). The ratio between the fluorescence signal in the tumor and in the muscle (background tissue) was then calculated to assess the contrast.

[1] = biological target: T1, human recombinant integrin αvβ3 (Homo sapiens, UniProt P05106+P06756); assay: Integrin receptor affinity ELISA (vitronectin-coated plates); assay type: binding; settings: tested in duplicate; read-out: Receptor affinity (IC50)
T1 construct: purchased R&D Systems

HT-29 cells = assay: Tumor uptake by optical imaging, subcutaneous human colorectal cancer model; assay type: in vivo, Athymic nude mice; settings: iv 1 nmol, tumor vs muscle
Description: Parallel experiments were performed in an animal model of human colorectal cancer (subcutaneous), using HT-29 cells, expressing low levels of integrin receptors. Briefly, the human colorectal adenocarcinoma cells HT-29 (ATCC, HTB-38) were cultured in McCoy's 5A medium supplemented with 10% foetal bovine serum, 2 mM glutamine, 100 IU/mL penicillin and 100 μg/mL streptomycin. Male Athymic nude mice, 4-6 weeks of age (Envigo), underwent subcutaneous implantation (right flank) of about 5 million cells suspended in 0.1 mL of serum-free medium. Mice were housed 4 per cage with food and water ad libitum. […] Then, AIN-76a rodent diet irradiated (Research Diets), a special diet that reduces auto-fluorescence, was used up to the end of the experiments. Tumor growth was monitored by longitudinal assessments using a caliper up to the target size of 300-600 mm^3 (3-4 weeks after cell implantation). […]
as §1

[2] = Optical properties: excitation/emission maxima and absolute fluorescence quantum yield; assay type: physicochemical
Description: Analysis were performed with a Waters Atlantis dC18 5 μm, 4.6×150 mm column using a gradient of phase A CH3COONH4 10 mM and phase B acetonitrile. Measured mass/charge ratios are listed for each compound. A dual-beam UV-VIS spectrophotometer (Lambda 40, Perkin Elmer) was used to determine the absorbance (Abs) of the compounds of the invention. […] The measurements were performed using an excitation wavelength at maximum absorbance of different dyes, and the sample was excited with a […] Xenon Light Source. Detection was performed by photomultiplier tubes (PMT-NIR) cooled detector or by TBX-04 detector. Dye solutions were carefully prepared to have an absorbance lower than 0.1 (optical densities) to minimize re-absorption phenomena. The compounds of the invention have been characterized in terms of their optical properties in vitro in aqueous medium (i.e., water/PBS pH 7.4) and in a clinical chemistry control serum (Seronorm, Sero SA), mimicking the chemical composition and optical properties of human serum. All dye or dye-conjugate solutions were freshly prepared.

[3] = Biodistribution and elimination by optical imaging after intravenous administration; assay type: in vivo, Balb/c nu/nu mice; settings: male, Balb/c nu/nu, mouse, in vivo, iv
Description: Biodistribution and elimination of the fluorescent agents of the invention was evaluated by optical imaging after intravenous administration in male Balb/c nu/nu mice, 6-10 weeks of age (Charles River Laboratories). Briefly, mice housed 4 per cage and fed with VRF1 (P) sterile diet (Special Diets Services Ltd) up to the end of the acclimation period (5 days). Then, AIN-76a rodent diet irradiated (Research Diets), a special diet that reduces auto-fluorescence, was used up to the end of the experiments. Imaging experiments were performed using the preclinical optical system IVIS Spectrum (Perkin Elmer).
In vivo imaging was performed under gas anesthesia (Sevofluorane 6-8% in oxygen). Animals were intravenously injected with the compounds and imaged longitudinally at 30 min, 1 h, 2 h, 3 h, 4 h, 6 h, and 24 h post-administration. Thus, animals were euthanized by anesthesia overdose, and the main tissues and organs of interest were excised for ex vivo optical imaging. Regions of interest (ROIs) were drawn on the tissues of interest for each fluorescence image at every time point to evaluate signal intensity (expressed as Average adiant Efficiency). The ratio between the fluorescence signal in the muscle (background tissue) and excretory organs (kidney, liver) was then calculated to assess the contrast. The tissue half-life was calculated by fitting the fluorescence signal decay in the muscle with a bi-exponential decay equation model using GraphPad Prism Software (version 5 for Windows).

CC(CC[N+]1=C(/C=C/C=C/C=C/C=C2/N(CCCCCC(=O)NCCCC[C@@H]3NC(=O)C(Cc4ccccc4)NC(=O)[C@H](CC(=O)O)NC(=O)CNC(=O)[C@H](CCCNC(=N)N)NC3=O)c3ccc(C(=O)NCC(O)C(O)C(O)C(O)CO)cc3C2(C)C)C(C)(C)c2cc(C(=O)NCC(O)C(O)C(O)C(O)CO)ccc21)S(=O)(=O)[O-] (some centres unmarked) [Compound 1]
Tumor-to-background ratio (TBR) (U87MG cells): 2-2.5 | IC50 [1]: 2.96 ± 0.49 nM | Tumor-to-background ratio (TBR) (HT-29 cells): 1.2-1.5 | Max Em ([2]; PBS pH 7.4): 786 nm | Max Ex ([2]; PBS pH 7.4): 757 nm | Φ (absolute fluorescence quantum yield) ([2]; PBS pH 7.4): 9.8% | Φ (absolute fluorescence quantum yield) ([2]; Seronorm control serum): 13.0% | half-life [3]: < 1 h
